# Experimental data as given in the supplement of paper PMC10567573.
# B1: CIB1 (parent)
# chain: DLSRLVNCLTGEGEDTRLSASEMK
# Variants of: B1
# Assay: protein stability index of a GFP-peptide fusion (GPS, HEK-293T) (PSI 1-6); higher = more stable
# Conditions: c terminus: a fixed tail appended
# 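Further: lentivirally expressed fusions sorted by FACS into six bins by GFP to DsRed ratio, PSI derived from sequencing read proportions per bin multiplied by bin number.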
row,Variant,protein stability index
1,DLSRLVNCLTGEQEDTRLSASEMK,2.54
2,DLSRLVNCLTGEWEDTRLSASEMK,2.4
3,DLSRLVNCLTGELEDTRLSASEMK,2.53
4,DLSRLVNCLTGEEEDTRLSASEMK,3.07
5,DLSRLVNCLTGEAEDTRLSASEMK,3.62
6,DLSRLVNCLTGEVEDTRLSASEMK,2.65
7,DLSRLVNCLTGEIEDTRLSASEMK,3.55
8,DLSRLVNCLTGEREDTRLSASEMK,2.89
9,DLSRLVNCLTGEHEDTRLSASEMK,3.31
10,DLSRLVNCLTGESEDTRLSASEMK,3.97
11,DLSRLVNCLTGEMEDTRLSASEMK,2.76
12,DLSRLVNCLTGENEDTRLSASEMK,2.71
13,DLSRLVNCLTGEYEDTRLSASEMK,3.02
14,DLSRLVNCLTGETEDTRLSASEMK,3.16
15,DLSRLVNCLTGEPEDTRLSASEMK,3.03
16,DLSRLVNCLTGECEDTRLSASEMK,2.94
17,DLSRLVNCLTGEKEDTRLSASEMK,3.45
18,DYSRLVNCLTGEGEDTRLSASEMK,3.82
19,DWSRLVNCLTGEGEDTRLSASEMK,2.89
20,DSSRLVNCLTGEGEDTRLSASEMK,5
21,DLSRLVNCLTGEGCDTRLSASEMK,3.36
22,DLSRLVNCLTGEGPDTRLSASEMK,2.17
23,DLSRLVNCLTGEGNDTRLSASEMK,3.06
24,DLSRLVNCLTGEGRDTRLSASEMK,2.34

row,Variant,protein stability index
1,DLSRLVNCLTGEGDDTRLSASEMK,1.66
2,DLSRLVNCLTGEGFDTRLSASEMK,2.2
3,DLSRLVNCLTGEGHDTRLSASEMK,3.05
4,DLSRLVNCLTGEGIDTRLSASEMK,2.6
5,DLSRLVNCLTGEGLDTRLSASEMK,2.27
6,DLSRLVNCLTGEGTDTRLSASEMK,3.41
7,DLSRLVNCLTGEGYDTRLSASEMK,2.83
8,DLSRLVNCLTGEGQDTRLSASEMK,3.53
9,DLSRLVNCLTGEGMDTRLSASEMK,2.06
10,DLSRLVNCLTGEGKDTRLSASEMK,2.94
11,DLSRLVNCLTGEGADTRLSASEMK,2.37
12,DLCRLVNCLTGEGEDTRLSASEMK,2.98
13,DLTRLVNCLTGEGEDTRLSASEMK,2.32
14,DLNRLVNCLTGEGEDTRLSASEMK,2.39
15,DLKRLVNCLTGEGEDTRLSASEMK,3.27
16,DLFRLVNCLTGEGEDTRLSASEMK,2.9
17,DLGRLVNCLTGEGEDTRLSASEMK,3.72
18,DLIRLVNCLTGEGEDTRLSASEMK,1.2
19,DLMRLVNCLTGEGEDTRLSASEMK,3.1
20,DLWRLVNCLTGEGEDTRLSASEMK,1.38
21,DLERLVNCLTGEGEDTRLSASEMK,2.78
22,DLRRLVNCLTGEGEDTRLSASEMK,2.43
23,DLYRLVNCLTGEGEDTRLSASEMK,2.79
24,DLQRLVNCLTGEGEDTRLSASEMK,2.84

row,Variant,protein stability index
1,DLLRLVNCLTGEGEDTRLSASEMK,2.2
2,DLSRLVNCNTGEGEDTRLSASEMK,4.24
3,DLSRLVNCFTGEGEDTRLSASEMK,3.35
4,DLSRLVNCPTGEGEDTRLSASEMK,2.87
5,DLSRLVNCVTGEGEDTRLSASEMK,4.17
6,DLSRLVNCETGEGEDTRLSASEMK,3.09
7,DLSRLVNCHTGEGEDTRLSASEMK,3.78
8,DLSRLVNCTTGEGEDTRLSASEMK,3.02
9,DLSRLVNCRTGEGEDTRLSASEMK,2.54
10,DLSRLVNCQTGEGEDTRLSASEMK,3.25
11,DLSRLVNCSTGEGEDTRLSASEMK,2.62
12,DLSRLVNCATGEGEDTRLSASEMK,1.75
13,DLSRLVNCDTGEGEDTRLSASEMK,3.23
14,DLSRLVNCMTGEGEDTRLSASEMK,4.05
15,DLSRLVNCYTGEGEDTRLSASEMK,3.32
16,DLSRLVNCITGEGEDTRLSASEMK,3.04
17,DLSRLVNCLAGEGEDTRLSASEMK,3.49
18,DLSRLVNCLCGEGEDTRLSASEMK,4.11
19,DLSRLVNCLPGEGEDTRLSASEMK,2.44
20,DLSRLVNCLKGEGEDTRLSASEMK,2.9
21,DLSRLVNCLHGEGEDTRLSASEMK,3.94
22,DLSRLVNCLIGEGEDTRLSASEMK,2.68
23,DLSRLVNCLEGEGEDTRLSASEMK,3.39
24,DLSRLVNCLMGEGEDTRLSASEMK,2.11

row,Variant,protein stability index
1,DLSRLVNCLQGEGEDTRLSASEMK,3.61
2,DLSRLVNCLGGEGEDTRLSASEMK,2.92
3,DLSRLVNCLDGEGEDTRLSASEMK,3.27
4,DLSRLVNCLWGEGEDTRLSASEMK,2.48
5,DLSRLVNCLVGEGEDTRLSASEMK,3.38
6,DLSRLVNCLLGEGEDTRLSASEMK,2.44
7,DLSRLVNCLSGEGEDTRLSASEMK,3.17
8,DLSRLVNCLRGEGEDTRLSASEMK,2.15
9,DLSRLVNCLYGEGEDTRLSASEMK,1.99
10,DLSRLVNCLFGEGEDTRLSASEMK,2.77
11,DLSRLVPCLTGEGEDTRLSASEMK,4.6
12,DLSRLVTCLTGEGEDTRLSASEMK,2.62
13,DLSRLVECLTGEGEDTRLSASEMK,4
14,DLSRLVWCLTGEGEDTRLSASEMK,2.2
15,DLSRLVLCLTGEGEDTRLSASEMK,3.85
16,DLSRLVACLTGEGEDTRLSASEMK,3.12
17,DLSRLVKCLTGEGEDTRLSASEMK,2.84
18,DLSRLVSCLTGEGEDTRLSASEMK,3.63
19,DLSRLVDCLTGEGEDTRLSASEMK,4.32
20,DLSRLVMCLTGEGEDTRLSASEMK,2.09
21,DLSRLVGCLTGEGEDTRLSASEMK,2.74
22,DLSRLVICLTGEGEDTRLSASEMK,2.59
23,DLSRLVRCLTGEGEDTRLSASEMK,3.09
24,DLSRLVNCLTGTGEDTRLSASEMK,1.85

row,Variant,protein stability index
1,DLSRLVNCLTGDGEDTRLSASEMK,1.73
2,DLSRLVNCLTGPGEDTRLSASEMK,3.04
3,DLSRLVNCLTGRGEDTRLSASEMK,2.4
4,DLSRLVNCLTGKGEDTRLSASEMK,3.29
5,DLSRLVNCLTGQGEDTRLSASEMK,2.43
6,DLSRLVNCLTGGGEDTRLSASEMK,1.18
7,DLSRLVNCLTGVGEDTRLSASEMK,3.34
8,DLSRLVNCLTGFGEDTRLSASEMK,1.63
9,DLSRLVNCLTGAGEDTRLSASEMK,2.15
10,DLSRLVNCLTGLGEDTRLSASEMK,1.88
11,DLSRLVNCLTGMGEDTRLSASEMK,3.22
12,DLSRLVNCLTGYGEDTRLSASEMK,2.17
13,DLSRLVNCLTGCGEDTRLSASEMK,3.46
14,DLSRLVNCLTGWGEDTRLSASEMK,2.05
15,DLSRLVNCLTGSGEDTRLSASEMK,2.44
16,DLSRLVNCLTGHGEDTRLSASEMK,2.92
17,DLSRLVNCLTGIGEDTRLSASEMK,2.38
18,DLSRAVNCLTGEGEDTRLSASEMK,3.99
19,DLSRTVNCLTGEGEDTRLSASEMK,3.61
20,DLSRCVNCLTGEGEDTRLSASEMK,3.35
21,DLSRKVNCLTGEGEDTRLSASEMK,4.53
22,DLSRHVNCLTGEGEDTRLSASEMK,3.23
23,DLSRQVNCLTGEGEDTRLSASEMK,4.54
24,DLSRVVNCLTGEGEDTRLSASEMK,4

row,Variant,protein stability index
1,DLSRPVNCLTGEGEDTRLSASEMK,5.06
2,DLSRFVNCLTGEGEDTRLSASEMK,2.49
3,DLSRDVNCLTGEGEDTRLSASEMK,4.39
4,DLSRRVNCLTGEGEDTRLSASEMK,2.87
5,DLSRGVNCLTGEGEDTRLSASEMK,5
6,DLSRYVNCLTGEGEDTRLSASEMK,2.27
7,DLSALVNCLTGEGEDTRLSASEMK,3.8
8,DLSCLVNCLTGEGEDTRLSASEMK,3.65
9,DLSGLVNCLTGEGEDTRLSASEMK,3.8
10,DLSHLVNCLTGEGEDTRLSASEMK,3.96
11,DLSPLVNCLTGEGEDTRLSASEMK,3.66
12,DLSILVNCLTGEGEDTRLSASEMK,2.48
13,DLSMLVNCLTGEGEDTRLSASEMK,2.98
14,DLSVLVNCLTGEGEDTRLSASEMK,2.01
15,DLSYLVNCLTGEGEDTRLSASEMK,2.85
16,DLSWLVNCLTGEGEDTRLSASEMK,3.45
17,DLSNLVNCLTGEGEDTRLSASEMK,2.39
18,DLSTLVNCLTGEGEDTRLSASEMK,4.46
19,DLSQLVNCLTGEGEDTRLSASEMK,2.27
20,DLSFLVNCLTGEGEDTRLSASEMK,3.88
21,DLSELVNCLTGEGEDTRLSASEMK,3.68
22,DLSLLVNCLTGEGEDTRLSASEMK,3.47
23,DLSKLVNCLTGEGEDTRLSASEMK,3.12
24,DLSRLVNCLTFEGEDTRLSASEMK,3.35

row,Variant,protein stability index
1,DLSRLVNCLTTEGEDTRLSASEMK,2.6
2,DLSRLVNCLTCEGEDTRLSASEMK,3.16
3,DLSRLVNCLTLEGEDTRLSASEMK,2.88
4,DLSRLVNCLTHEGEDTRLSASEMK,3.81
5,DLSRLVNCLTWEGEDTRLSASEMK,2.34
6,DLSRLVNCLTQEGEDTRLSASEMK,3.03
7,DLSRLVNCLTKEGEDTRLSASEMK,3.49
8,DLSRLVNCLTYEGEDTRLSASEMK,2.67
9,DLSRLVNCLTEEGEDTRLSASEMK,3.98
10,DLSRLVNCLTIEGEDTRLSASEMK,3
11,DLSRLVNCLTMEGEDTRLSASEMK,2.84
12,DLSRLVNCLTNEGEDTRLSASEMK,3.7
13,DLSRLVNCLTSEGEDTRLSASEMK,3.55
14,DLSRLVNCLTREGEDTRLSASEMK,2.9
15,DLSRLTNCLTGEGEDTRLSASEMK,3.08
16,DLSRLDNCLTGEGEDTRLSASEMK,4.1
17,DLSRLCNCLTGEGEDTRLSASEMK,3.96
18,DLSRLMNCLTGEGEDTRLSASEMK,3.61
19,DLSRLINCLTGEGEDTRLSASEMK,3.25
20,DLSRLRNCLTGEGEDTRLSASEMK,3.94
21,DLSRLLNCLTGEGEDTRLSASEMK,3.68
22,DLSRLPNCLTGEGEDTRLSASEMK,4.84
23,DLSRLSNCLTGEGEDTRLSASEMK,2.6
24,DLSRLQNCLTGEGEDTRLSASEMK,2.64

row,Variant,protein stability index
1,DLSRLWNCLTGEGEDTRLSASEMK,2.64
2,DLSRLGNCLTGEGEDTRLSASEMK,2.36
3,DLSRLENCLTGEGEDTRLSASEMK,2.91
4,DLSRLNNCLTGEGEDTRLSASEMK,4.04
5,DLSRLVNLLTGEGEDTRLSASEMK,2.21
6,DLSRLVNQLTGEGEDTRLSASEMK,3.95
7,DLSRLVNHLTGEGEDTRLSASEMK,2.81
8,DLSRLVNVLTGEGEDTRLSASEMK,3.27
9,DLSRLVNSLTGEGEDTRLSASEMK,3.63
10,DLSRLVNNLTGEGEDTRLSASEMK,3.02
11,DLSRLVNILTGEGEDTRLSASEMK,2.4
12,DLSRLVNMLTGEGEDTRLSASEMK,3.52
13,DLSRLVNYLTGEGEDTRLSASEMK,2.34
14,DLSRLVNPLTGEGEDTRLSASEMK,4.28
15,DLSRLVNELTGEGEDTRLSASEMK,3.42
16,DLSRLVNKLTGEGEDTRLSASEMK,1.43
17,DLSRLVNDLTGEGEDTRLSASEMK,4.3
18,DLSRLVNALTGEGEDTRLSASEMK,3.09
19,DLSRLVNGLTGEGEDTRLSASEMK,3.77
20,DLSRLVNFLTGEGEDTRLSASEMK,2.46
